Laboratory results: PMC10689503, “CaMKK2 and CHK1 phosphorylate human STN1 in response to replication stress to protect stalled forks from aberrant resection”

Key:
Settings in all cases: protein: recombinant;recombinant;recombinant; copies: 1;1;1; label: 5'-Cy3 on Oligo 2; 25 bp duplex; 5' overhang 35 nt on strand 1
CTC1;STN1 S96A;TEN1 = CTC1;STN1 S96A;TEN1 (human;human;human, UniProt Q2NKJ3;Q9H668;Q86WV5 1-1217;1-368;1-123, |S96A|); assay: EMSA; affinity comparable to WT-CST; EMSA: 60 nM DNA, 35 mM Tris-HCl pH 7.5, 1 mM DTT, 100 ng/uL BSA, 50 mM KCl, 37 C, 5 min; 0.8% agarose, 1x TBE, 4 C
CTC1;STN1 S96D;TEN1 = CTC1;STN1 S96D;TEN1 (human;human;human, UniProt Q2NKJ3;Q9H668;Q86WV5 1-1217;1-368;1-123, |S96D|); assay: as above
CTC1;STN1 WT;TEN1 = CTC1;STN1 WT;TEN1 (human;human;human, UniProt Q2NKJ3;Q9H668;Q86WV5 1-1217;1-368;1-123, ||); assay: EMSA; EMSA: 60 nM DNA, 35 mM Tris-HCl pH 7.5, 1 mM DTT, 100 ng/uL BSA, 50 mM KCl, 37 C, 5 min; 0.8% agarose, 1x TBE, 4 C

Measured: binding result

Chain of CTC1;STN1 WT;TEN1 (Q2NKJ3 whole entry, chain 1 of 3): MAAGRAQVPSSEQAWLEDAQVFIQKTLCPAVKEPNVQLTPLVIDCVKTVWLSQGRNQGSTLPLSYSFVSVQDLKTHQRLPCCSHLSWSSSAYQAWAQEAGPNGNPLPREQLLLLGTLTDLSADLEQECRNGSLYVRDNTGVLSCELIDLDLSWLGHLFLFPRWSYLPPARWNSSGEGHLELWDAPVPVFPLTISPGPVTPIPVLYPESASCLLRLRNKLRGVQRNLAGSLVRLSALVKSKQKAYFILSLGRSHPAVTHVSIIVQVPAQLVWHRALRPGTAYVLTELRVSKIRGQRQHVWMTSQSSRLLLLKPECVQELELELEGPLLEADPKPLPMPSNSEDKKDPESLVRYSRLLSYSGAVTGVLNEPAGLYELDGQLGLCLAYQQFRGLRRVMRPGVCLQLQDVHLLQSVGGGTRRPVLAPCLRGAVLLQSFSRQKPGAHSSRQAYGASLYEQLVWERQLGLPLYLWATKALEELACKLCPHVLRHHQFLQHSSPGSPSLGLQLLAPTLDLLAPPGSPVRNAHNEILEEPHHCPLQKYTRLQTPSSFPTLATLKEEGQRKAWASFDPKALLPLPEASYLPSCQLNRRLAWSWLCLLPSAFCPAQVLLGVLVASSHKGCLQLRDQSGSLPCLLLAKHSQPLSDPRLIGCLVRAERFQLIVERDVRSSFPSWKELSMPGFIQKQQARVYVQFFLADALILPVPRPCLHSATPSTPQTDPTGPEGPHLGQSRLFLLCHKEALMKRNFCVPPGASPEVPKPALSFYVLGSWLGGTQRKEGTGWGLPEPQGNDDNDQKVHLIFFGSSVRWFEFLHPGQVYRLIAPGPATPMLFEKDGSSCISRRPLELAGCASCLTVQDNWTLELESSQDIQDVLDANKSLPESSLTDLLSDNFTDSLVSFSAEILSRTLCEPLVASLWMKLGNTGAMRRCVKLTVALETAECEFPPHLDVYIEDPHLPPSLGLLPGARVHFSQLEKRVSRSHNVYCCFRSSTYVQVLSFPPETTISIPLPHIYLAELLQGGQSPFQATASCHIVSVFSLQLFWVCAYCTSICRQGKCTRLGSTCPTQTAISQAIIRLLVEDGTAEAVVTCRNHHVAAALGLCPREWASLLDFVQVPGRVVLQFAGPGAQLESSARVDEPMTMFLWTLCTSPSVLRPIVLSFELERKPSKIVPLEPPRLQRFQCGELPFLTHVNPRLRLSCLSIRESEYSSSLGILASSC
Chain of CTC1;STN1 WT;TEN1 (Q9H668 whole entry, chain 2 of 3): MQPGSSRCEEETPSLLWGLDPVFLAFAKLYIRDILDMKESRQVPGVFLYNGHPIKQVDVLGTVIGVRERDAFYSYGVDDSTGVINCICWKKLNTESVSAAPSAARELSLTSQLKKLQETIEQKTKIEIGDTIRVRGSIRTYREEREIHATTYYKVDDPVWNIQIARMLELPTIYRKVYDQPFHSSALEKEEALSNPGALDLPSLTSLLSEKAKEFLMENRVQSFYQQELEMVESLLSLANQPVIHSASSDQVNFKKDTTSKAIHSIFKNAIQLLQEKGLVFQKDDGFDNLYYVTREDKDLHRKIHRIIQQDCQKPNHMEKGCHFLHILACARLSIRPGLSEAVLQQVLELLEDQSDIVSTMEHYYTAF
Chain of CTC1;STN1 WT;TEN1 (Q86WV5 whole entry, chain 3 of 3): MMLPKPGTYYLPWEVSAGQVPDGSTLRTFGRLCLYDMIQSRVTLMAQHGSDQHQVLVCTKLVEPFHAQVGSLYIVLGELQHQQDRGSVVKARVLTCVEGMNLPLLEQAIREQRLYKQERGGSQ
Chain of CTC1;STN1 S96A;TEN1 (Q2NKJ3 whole entry, chain 1 of 3): as the sequence (Q2NKJ3 whole entry, chain 1 of 3) above
Chain of CTC1;STN1 S96A;TEN1 (Q9H668 whole entry S96A, chain 2 of 3): as the sequence (Q9H668 whole entry, chain 2 of 3) above, with S96A counted along it
Chain of CTC1;STN1 S96A;TEN1 (Q86WV5 whole entry, chain 3 of 3): as the sequence (Q86WV5 whole entry, chain 3 of 3) above
Chain of CTC1;STN1 S96D;TEN1 (Q2NKJ3 whole entry, chain 1 of 3): as the sequence (Q2NKJ3 whole entry, chain 1 of 3) above
Chain of CTC1;STN1 S96D;TEN1 (Q9H668 whole entry S96D, chain 2 of 3): as the sequence (Q9H668 whole entry, chain 2 of 3) above, with S96D counted along it
Chain of CTC1;STN1 S96D;TEN1 (Q86WV5 whole entry, chain 3 of 3): as the sequence (Q86WV5 whole entry, chain 3 of 3) above

B1: Cy3-labeled 5' overhang DNA (Oligo 1 + Oligo 2) (mixed)
DNA 1: ACGCTGCCGAATTCTACCAGTGCCTTGCTAGGACATCTTTGCCCACCTGCAGGTTCACCC
DNA 2: GGGTGAACCTGCAGGTGGGCAAAGA
modifications: Oligo 1: phosphorothioate bonds at both ends (after nt 1-5 and as printed around the last 4 nt)
binds: all assays above
